Assay results from patent publication US20220056091A1.

T1: Fc fused human IL-18BP isoform a (IL-18BPa) (human), O95998
T1 chain: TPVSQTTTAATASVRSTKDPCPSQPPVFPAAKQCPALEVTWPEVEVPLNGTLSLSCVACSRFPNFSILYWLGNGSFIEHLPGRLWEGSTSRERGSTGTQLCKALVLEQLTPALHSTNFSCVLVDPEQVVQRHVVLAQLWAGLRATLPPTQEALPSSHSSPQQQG


Target: T1, Fc fused human IL-18BP isoform a …
Test: SPR, Fc-IL-18BPa captured, 1:1 model
Settings: remark: other sources report otherwise

Row | Kd | koff | kon | Binder
1 | 323 nM | 0.0154 s⁻¹ | 47800 M⁻¹ s⁻¹ | Modified IL-18 polypeptide of SEQ ID NO: 2 (E06K, K53A, S55A), Q14116 37-193 (ligand) YFGKLKSKLSVIRNLNDQVLFIDQGNRPLFEDMTDSDCRDNAPRTIFIISMYADAQPRGMAVTISVKCEKISTLSCENKIISFKEMNPPDNIKDTKSDIIFFQRSVPGHDNKMQFESSSYEGYFLACEKERDLFKLILKKEDELGDRSIMFTVQNED
2 | 1000 nM |  |  | Modified IL-18 polypeptide of SEQ ID NO: 17 (E06K, K53A, S55A, C38S, C68S, C76S, C127S, K70C), Q14116 37-193 (ligand) YFGKLKSKLSVIRNLNDQVLFIDQGNRPLFEDMTDSDSRDNAPRTIFIISMYADAQPRGMAVTISVKSECISTLSSENKIISFKEMNPPDNIKDTKSDIIFFQRSVPGHDNKMQFESSSYEGYFLASEKERDLFKLILKKEDELGDRSIMFTVQNED
3 | > 1000 nM |  |  | Modified IL-18 polypeptide of SEQ ID NO: 3 (Y01G, F02A, E06K, M51G, K53A, D54A, S55A, T63A), Q14116 37-193 (ligand) GAGKLKSKLSVIRNLNDQVLFIDQGNRPLFEDMTDSDCRDNAPRTIFIISGYAAAQPRGMAVAISVKCEKISTLSCENKIISFKEMNPPDNIKDTKSDIIFFQRSVPGHDNKMQFESSSYEGYFLACEKERDLFKLILKKEDELGDRSIMFTVQNED
